Experimental data reported in patent US20220153819A1 (Regeneron, published 2022).
Where “and” joins values, the source holds several entries; their conditions need not be identical. Identical values can stand only once. Like-named read-outs stand apart in the source and are kept apart here.

Key:
[1] = target: T1, human complement component 1q (C1q) (human, UniProt P02745 23-245; P02746 28-253; P02747 29-245)
[2] = target: T2, Protein A of S. aureus (ELISA on S. aureus Newman Δspa as printed) (Staphylococcus aureus); assay: ELISA, plate coated with S. aureus Newman Δspa, luminescence
T2 construct: whole, on cells

biotinylated human C1q [3] = target: T3, biotinylated human C1q (human, UniProt P02745 23-245; P02746 28-253; P02747 29-245)
T3 construct: also called Bt hC1q; bt-hC1q

IsdB.6×(His) [4] = target: T4, IsdB.6×(His) (Staphylococcus aureus, UniProt A6QG30 41-613); assay: SPR (Biacore T200), 37C; bsAb captured, IsdB-6xHis injected
IsdB.6×(His) [5] = target: T4, IsdB.6×(His); assay: SPR (Biacore 8k), 25C; IsdB-6xHis captured via anti-His, bsAb injected
[6] = target: T1, human complement component 1q (C1q)
biotinylated human C1q [7] = target: T3, biotinylated human C1q; remark: listed apart in the source
IsdB.6×(His) [8] = target: T4, IsdB.6×(His); assay: SPR (Biacore T200), 25C; bsAb captured, IsdB-6xHis injected
[9] = target: T1, human complement component 1q (C1q); assay: SPR (Biacore T200), 37C; bsAb captured via anti-human F(ab')2, hC1q injected
[10] = target: T1, human complement component 1q (C1q); assay: SPR (Biacore T200), 25C; bsAb captured via anti-human F(ab')2, hC1q injected
biotinylated human C1q [11] = target: T3, biotinylated human C1q; remark: listed apart in the source
biotinylated human C1q [12] = target: T3, biotinylated human C1q; remark: listed apart in the source
hGITR.mmh [13] = target: T5, hGITR.mmh (human)
T5 chain: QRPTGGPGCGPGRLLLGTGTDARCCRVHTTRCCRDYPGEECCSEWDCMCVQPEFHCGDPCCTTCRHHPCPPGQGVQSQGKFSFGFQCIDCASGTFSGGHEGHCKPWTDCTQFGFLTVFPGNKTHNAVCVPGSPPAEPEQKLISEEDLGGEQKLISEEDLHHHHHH

hGITR.mmh [14] = target: T5, hGITR.mmh
[15] = target: T1, human complement component 1q (C1q); remark: listed apart in the source
biotinylated human C1q [16] = target: T3, biotinylated human C1q
biotinylated human C1q [17] = target: T3, biotinylated human C1q; remark: listed apart in the source
hGITR.mmh [18] = target: T5, hGITR.mmh
[19] = target: T6, human GITR on Jurkat/hGITR/hCD20 cells (human, UniProt Q9Y5U5 26-241)
T6 sequence (looked up): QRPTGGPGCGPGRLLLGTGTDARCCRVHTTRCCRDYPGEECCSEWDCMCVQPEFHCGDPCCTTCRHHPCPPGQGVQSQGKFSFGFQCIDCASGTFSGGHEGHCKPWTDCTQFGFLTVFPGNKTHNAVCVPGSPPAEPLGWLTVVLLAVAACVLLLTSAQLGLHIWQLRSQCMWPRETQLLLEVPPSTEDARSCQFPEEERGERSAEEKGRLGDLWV

[20] = target: T1, human complement component 1q (C1q); remark: listed apart in the source

T1 sequence (P02745 23-245, chain 1 of 3): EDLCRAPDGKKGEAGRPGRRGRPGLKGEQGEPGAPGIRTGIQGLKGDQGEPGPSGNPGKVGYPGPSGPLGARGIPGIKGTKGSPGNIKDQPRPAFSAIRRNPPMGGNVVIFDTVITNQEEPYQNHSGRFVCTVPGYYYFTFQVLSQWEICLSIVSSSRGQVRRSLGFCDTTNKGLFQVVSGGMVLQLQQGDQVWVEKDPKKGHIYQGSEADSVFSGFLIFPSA
T1 sequence (P02746 28-253, chain 2 of 3): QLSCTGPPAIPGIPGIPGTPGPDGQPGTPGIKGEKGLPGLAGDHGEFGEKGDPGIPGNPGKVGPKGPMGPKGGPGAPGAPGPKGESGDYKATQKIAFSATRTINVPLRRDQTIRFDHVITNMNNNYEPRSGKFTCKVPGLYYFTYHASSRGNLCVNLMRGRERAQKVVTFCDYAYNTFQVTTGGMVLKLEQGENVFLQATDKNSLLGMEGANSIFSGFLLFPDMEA
T1 sequence (P02747 29-245, chain 3 of 3): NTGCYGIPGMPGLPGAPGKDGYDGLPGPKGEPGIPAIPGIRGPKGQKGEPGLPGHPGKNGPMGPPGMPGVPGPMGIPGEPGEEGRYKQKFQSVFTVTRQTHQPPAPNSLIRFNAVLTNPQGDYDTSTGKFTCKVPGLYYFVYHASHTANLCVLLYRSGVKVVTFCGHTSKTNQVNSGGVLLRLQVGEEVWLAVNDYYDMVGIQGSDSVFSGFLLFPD
T3 sequence (P02745 23-245, chain 1 of 3): as the sequence (P02745 23-245, chain 1 of 3) above
T3 sequence (P02746 28-253, chain 2 of 3): as the sequence (P02746 28-253, chain 2 of 3) above
T3 sequence (P02747 29-245, chain 3 of 3): as the sequence (P02747 29-245, chain 3 of 3) above

B1: REGN5551, anti-Protein A x anti-C1q bispecific antibody (bispecific antibody, V domains shown)
VH 1: EVQLVESGGGLVQPGGSLRLSCAASGFTFTSYDMHWVRQATGKGLEWVSNIDPAGNTFYPGSVKGRFTISRENAKKSLYLQMNSLRAGDTAVYYCARNLGNWGYDHWGQGTLVTVSS
VH 2: EVQLVESGGGVVQPGGSLRLSCAASGFSLDDYAMHWVRQTPGKGLEWVSLISGDGSRTSYADSVKGRFTISRDNSKNSLYLKMNSLRTEDTALYYCTKDPHNSNWFDPWGQGTLVTVSS
VL: not shown
notes: also called bsC1q × Protein A; bs hC1q × protein A
B1 gave a Kd [1] of 1.36 nM, a koff [1] of 0.00488 s⁻¹ and a kon [1] of 3.06e+06 M⁻¹ s⁻¹. For the same binder, the EC50 [2] was 0.148 nM.

B2: REGN5067, anti-IsdB x anti-C1q bispecific antibody (bispecific antibody, V domains shown)
VH 1: EVQLVESGGGLVQPGRSLRLSCTTSGFTFDDYAMHWVRQVPGQGLEWVAGLSWNSDTIGYADSVKGRFTISRDNAKNSLYLQMKSLKAEDTALYYCTKDFYHSLNNWNYYYFDYWGQGTLVTVSS
VH 2: EVQLVQSGAEVKKPGESLKIFCKGSGYSFINDWIGWVRQMPGKGLEWMGLIFPGDSDTRYSPVFQGHVTISADQSIDTAYLQWNSLKASDTAIYYCAVLRYWHFAIWGRGTLVTVSS
VL: not shown
B2 gave a Kd (biotinylated human C1q [3]) of 3770 nM, a Kd (IsdB.6×(His) [4]) of 3.33 nM and a koff (IsdB.6×(His) [4]) of 0.00052 s⁻¹. It also gave a kon (IsdB.6×(His) [4]) of 156000 M⁻¹ s⁻¹, a t1/2 (IsdB.6×(His) [4]) of 22.2 min and a Kd (IsdB.6×(His) [5]) of 3.01 nM. For the same binder, the koff (IsdB.6×(His) [5]) was 0.000989 s⁻¹, the kon (IsdB.6×(His) [5]) was 328000 M⁻¹ s⁻¹ and the t1/2 (IsdB.6×(His) [5]) was 11.7 min. For the same binder, the Kd [6] was 2.05 nM, the Kd (biotinylated human C1q [7]) was 2180 nM and the Kd (IsdB.6×(His) [8]) was 1.7 nM. It also gave a koff (IsdB.6×(His) [8]) of 0.000204 s⁻¹, a kon (IsdB.6×(His) [8]) of 120000 M⁻¹ s⁻¹ and a t1/2 (IsdB.6×(His) [8]) of 56.6 min. It also gave a koff [9] of 0.0134 s⁻¹, a kon [9] of 6.52e+06 M⁻¹ s⁻¹ and a t1/2 [9] of 0.9 min. The koff [10] was 0.00435 s⁻¹, the kon [10] was 5.78e+06 M⁻¹ s⁻¹ and the t1/2 [10] was 2.7 min. The koff (biotinylated human C1q [11]) was 0.844 s⁻¹, the kon (biotinylated human C1q [11]) was 224000 M⁻¹ s⁻¹ and the t1/2 (biotinylated human C1q [11]) was 0.01 min. The koff (biotinylated human C1q [12]) was 0.365 s⁻¹, the kon (biotinylated human C1q [12]) was 168000 M⁻¹ s⁻¹ and the t1/2 (biotinylated human C1q [12]) was 0.03 min.

B3: REGN6546, anti-GITR x anti-C1q bispecific antibody (bispecific antibody, V domains shown)
VH 1: QVQLQESGPGLVKPSETLSLTCIVSGGSISGYFWNWIRQPPGKGLEWIGYIYYSGTTIYNPSLKSRFTISLDTSKNQFSLKLTSVTAADTAVYYCARESYNPSPRYFDHWGQGTLVTVSS
VH 2: B2 VH 2
VL: not shown
Work on B3 yielded a Kd (hGITR.mmh [13]) of 4.61 nM, a koff (hGITR.mmh [13]) of 0.0031 s⁻¹ and a kon (hGITR.mmh [13]) of 673000 M⁻¹ s⁻¹. For the same binder, the Kd (hGITR.mmh [14]) was 7.52 nM and 20.9 nM, the kon (hGITR.mmh [14]) was 453000 M⁻¹ s⁻¹ and 543000 M⁻¹ s⁻¹ and the Kd [15] was 0.753 nM. It also gave a koff [15] of 0.00409 s⁻¹, a kon [15] of 5.43e+06 M⁻¹ s⁻¹ and a Kd (biotinylated human C1q [16]) of 1880 nM. It also gave a koff (biotinylated human C1q [16]) of 0.413 s⁻¹, a kon (biotinylated human C1q [16]) of 220000 M⁻¹ s⁻¹ and a Kd (biotinylated human C1q [17]) of 8540 nM. For the same binder, the koff (biotinylated human C1q [17]) was 0.687 s⁻¹, the kon (biotinylated human C1q [17]) was 80500 M⁻¹ s⁻¹ and the Kd (hGITR.mmh [18]) was 16 nM. For the same binder, the koff (hGITR.mmh [18]) was 0.019 s⁻¹, the kon (hGITR.mmh [18]) was 1.19e+06 M⁻¹ s⁻¹ and the EC50 [19] was 23.5 nM. For the same binder, the Kd [20] was 4.63 nM, the koff [20] was 0.0227 s⁻¹ and the kon [20] was 4.9e+06 M⁻¹ s⁻¹.
